From article PMC10715038 (Microbiology Spectrum, 2023)

Tests used:
[1] = molecular target: T1, SARS-CoV-2 WHU01 Spike RBD, monomeric (SARS-CoV-2, UniProt P0DTC2); assay: SPR; conditions: both partners purified
T1 construct: not shown: Fc (human IgG1), C-terminal, cleaved

[2] = molecular target: T1, SARS-CoV-2 WHU01 Spike RBD, monomeric; assay: SPR; conditions: both partners purified; remark: listed apart in the source

| Binder | Kd [1] | koff [1] | kon [1] | Kd [2] | koff [2] | kon [2] |
| --- | --- | --- | --- | --- | --- | --- |
| Pig ACE2-huFc (soluble pig ACE2 ectodomain, human IgG1 Fc fusion) (Fc fusion) QSTTEELAKTFLEKFNLEAEDLAYQSSLASWNYNTNITDENIQKMNDARAKWSAFYEEQSRIAKTYPLDEIQTLILKRQLQALQQSGTSGLSADKSKRLNTILNTMSTIYSSGKVLDPNNPQECLVLEPGLDEIMENSKDYSRRLWAWESWRAEVGKQLRPLYEEYVVLENEMARANNYEDYGDYWRGDYEVTGTGDYDYSRNQLMEDVERTFAEIKPLYEHLHAYVRAKLMDAYPSRISPTGCLPAHLLGDMWGRFWTNLYPLTVPFGEKPSIDVTEAMVNQSWDAIRIFEEAEKFFVSIGLPNMTQGFWNNSMLTEPGDGRKVVCHPTAWDLGKGDFRIKMCTKVTMDDFLTAHHEMGHIQYDMAYAIQPYLLRNGANEGFHEAVGEIMSLSAATPHYLKALGLLPPDFYEDSETEINFLLKQALTIVGTLPFTYMLEKWRWMVFKGEIPKEQWMQKWWEMKREIVGVVEPLPHDETYCDPACLFHVAEDYSFIRYYTRTIYQFQFHEALCRTAKHEGPLYKCDISNSTEAGQKLLQMLSLGKSEPWTLALENIVGVKTMDVKPLLSYFEPLLTWLKAQNGNSSVGWNTDWTPYADQSIKVRISLKSALGKEAYEWNDNEMYLFRSSIAYAMRNYFSSAKNETIPFGAEDVWVSDLKPRISFNFFVTSPANMSDIIPRSDVEKAISMSRSRINDAFRLDDNTLEFLGIQPTLGPPDEPPVT | 1.14 µM | 0.1 s⁻¹ | 87000 M⁻¹ s⁻¹ | 1 µM | 0.0395 s⁻¹ | 40000 M⁻¹ s⁻¹ |
| Rhinolophus sinicus bat ACE2-huFc (soluble bat ACE2 ectodomain, human IgG1 Fc fusion) (Fc fusion) QSTTEDEAKMFLDKFNTKAEDLSHQSSLASWDYNTNINDENVQKMDEAGAKWSAFYEEQSKLAKNYSLEQIQNVTVKLQLQILQQSGSPVLSEDKSKRLNSILNAMSTIYSTGKVCKPNKPQECLLLEPGLDNIMGTSKDYNERLWAWEGWRAEVGKQLRPLYEEYVVLKNEMARGYHYEDYGDYWRRDYETEESPGPGYSRDQLMKDVERIFTEIKPLYEHLHAYVRAKLMDTYPFHISPTGCLPAHLLGDMWGRFWTNLYPLTVPFGQKPNIDVTDEMLKQGWDADRIFKEAEKFFVSVGLPNMTEGFWNNSMLTEPGDGRKVVCHPTAWDLGKGDFRIKMCTKVTMEDFLTAHHEMGHIQYDMAYASQPYLLRNGANEGFHEAVGEVMSLSVATPKHLKTMGLLSPDFREDNETEINFLLKQALNIVGTLPFTYMLEKWRWMVFKGEIPKEEWMKKWWEMKRKIVGVVEPVPHDETYCDPASLFHVANDYSFIRYYTRTIFEFQFHEALCRIAQHDGPLHKCDISNSTDAGKKLHQMLSVGKSQAWTKTLEDIVDSRNMDVGPLLKYFEPLYTWLQEQNRKSYVGWNTDWSPYSDQSIKVRISLKSALGENAYEWNDNEMYLFRSSVAYAMREYFLKEKHQTILFGAENVWVSNLKPRISFNFHVTSPGNLSDIIPRPEVEGAIRMSRSRINDAFRLDDNSLEFLGIQPTLGPPYQPPVT | 1.14 µM | 0.0343 s⁻¹ | 30000 M⁻¹ s⁻¹ | 1.92 µM | 0.0377 s⁻¹ | 20000 M⁻¹ s⁻¹ |
